The results in this text go back to US20230078173A1 (ELIXIRON IMMUNOTHERAPEUTICS HONG KONG, published 2023).

Changes are numbered by the printed parent chain. In names and notes the source's numbering stands.

For assay [1], the target named is T1, IL10Rα-Fc fusion protein (human, UniProt Q13651 22-235).
T1 construct: Bought from R&D Systems; also called human IL10Rα
T1 sequence (looked up): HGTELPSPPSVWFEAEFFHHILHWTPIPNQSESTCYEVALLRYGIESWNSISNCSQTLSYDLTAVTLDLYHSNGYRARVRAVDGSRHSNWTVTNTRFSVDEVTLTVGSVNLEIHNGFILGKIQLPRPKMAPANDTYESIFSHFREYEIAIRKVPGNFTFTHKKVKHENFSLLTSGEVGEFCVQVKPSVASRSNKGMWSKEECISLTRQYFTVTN
The assay can be described thus: ELISA, IL10Rα-Fc immobilised (1 µg/mL).
Procedure: (§1) The wells were washed with wash solution (0.05% Tween20 in imidazole-buffered saline) and blocked with 1% BSA. […] After incubation at 37° C. for 1 hr, the wells were washed with wash solution. Peroxidase-conjugated Goat anti-human kappa Light chain antibody (Sigma) was applied to each well at 37° C. for 1 h incubation. […] After washing, the wells were developed with TMB substrate for 5-10 min at RT and then stopped with 1 N HCl. Thereafter, absorbance was measured at 450 nm and 650 nm. EC50 and IC50 values were calculated using GraphPad Prism7.

In assay [2] the target is T2, recombinant human PD-L1-mFc fusion protein (human, UniProt Q9NZQ7 19-238).
T2 construct: also called hPD-L1; huPD-L1
The assay can be described thus: competition ELISA, PD-L1 immobilised, competitor biotin-PD-1-Fc (30 µg/mL). Background: ELISA stands for enzyme-linked immunosorbent assay.
Procedure: To test the competition activity, serial dilutions of anti-PD-L1 or anti-PD-L1/IL10 fusion proteins were added.
A recombinant human PD-L1-mFc fusion protein (1 μg/mL), recombinant cynomolgus PD-L1 (1 μg/mL; Sino Biological), or an IL10Rα-Fc fusion protein (1 μg/mL, R&D Systems) were immobilized on 96 well microtiter plate at a concentration of 1 μg/ml in Coating Solution (SeraCare) overnight at 4° C. The wells were washed with wash solution (0.05% Tween20 in imidazole-buffered saline) and blocked with 1% BSA. Serial dilutions of anti-PD-L1 or anti-PD-L1/IL10 fusion proteins were added to wells. After incubation at 37° C. for 1 hr, the wells were washed with wash solution. Peroxidase-conjugated Goat anti-human kappa Light chain antibody (Sigma) was applied to each well at 37° C. for 1 h incubation. […] After washing, the wells were developed with TMB substrate for 5-10 min at RT and then stopped with 1 N HCl. Thereafter, absorbance was measured at 450 nm and 650 nm. EC50 and IC50 values were calculated using GraphPad Prism7.

Assay [3] deals with T2, recombinant human PD-L1-mFc fusion …. The assay can be described thus: ELISA, human PD-L1-mFc immobilised (1 µg/mL), anti-human kappa-HRP detection.
Procedure: as §1
Assay [4] addresses T3, recombinant cynomolgus PD-L1 (cynomolgus monkey, UniProt Q9NZQ7 19-238 (human entry)).
T3 construct: also called cynoPD-L1; Cynomolgus PD-L1.ECD
The assay can be described thus: ELISA, cynomolgus PD-L1 immobilised (1 µg/mL).
Procedure: as §1

The target in assay [5] is PD-L1 on PD-L1-presenting U2OS bioassay cells (UniProt Q9NZQ7 19-290). The assay can be described thus: cell-based or functional assay.
The target of assay [6] is T4, recombinant human PD-L1-His (human, UniProt Q9NZQ7 19-238).
T4 construct: Analyte of the BLI assay; also called hPD-L1
The assay can be described thus: BLI (Octet RED96), antibody captured on AHC biosensor, PD-L1-His in solution, 1:1 model.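 Also: rates obtained by 1:1 Langmuir fitting of the binding response, using a 2.5 min association phase then a 5 min dissociation phase.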
Procedure: Rate constants were calculated by curve fitting analyses (1:1 Langmuir model) of binding response with a 2.5-minute association and 5-minute dissociation interaction time.

Sequence of PD-L1 on PD-L1-presenting U2OS bioassay cells (Q9NZQ7 19-290): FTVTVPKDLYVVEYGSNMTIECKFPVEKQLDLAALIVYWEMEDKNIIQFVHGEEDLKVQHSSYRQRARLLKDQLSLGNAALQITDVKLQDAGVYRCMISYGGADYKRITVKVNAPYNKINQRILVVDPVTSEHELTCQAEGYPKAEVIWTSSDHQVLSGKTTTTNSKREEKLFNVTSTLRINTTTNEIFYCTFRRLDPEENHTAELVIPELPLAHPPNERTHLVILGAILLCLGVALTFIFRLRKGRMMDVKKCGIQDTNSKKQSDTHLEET
T2 sequence (Q9NZQ7 19-238): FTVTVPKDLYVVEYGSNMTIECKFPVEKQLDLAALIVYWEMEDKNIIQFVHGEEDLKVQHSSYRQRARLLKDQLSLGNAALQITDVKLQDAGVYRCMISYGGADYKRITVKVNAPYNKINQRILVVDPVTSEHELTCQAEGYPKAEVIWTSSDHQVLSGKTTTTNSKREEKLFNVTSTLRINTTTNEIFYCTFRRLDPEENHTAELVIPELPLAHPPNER
T4 sequence (Q9NZQ7 19-238): as above
T3 sequence (Q9NZQ7 other isoform, or with tags, fused parts or gaps limits assumed): as the sequence (Q9NZQ7 19-238) above, with A33T, A34S, S62N, R68Q, Q82R, F173L, T185A, T192I, H215L counted along it

B1: PHS219/IL10 (antibody, human IgG1, kappa, N297A)
heavy: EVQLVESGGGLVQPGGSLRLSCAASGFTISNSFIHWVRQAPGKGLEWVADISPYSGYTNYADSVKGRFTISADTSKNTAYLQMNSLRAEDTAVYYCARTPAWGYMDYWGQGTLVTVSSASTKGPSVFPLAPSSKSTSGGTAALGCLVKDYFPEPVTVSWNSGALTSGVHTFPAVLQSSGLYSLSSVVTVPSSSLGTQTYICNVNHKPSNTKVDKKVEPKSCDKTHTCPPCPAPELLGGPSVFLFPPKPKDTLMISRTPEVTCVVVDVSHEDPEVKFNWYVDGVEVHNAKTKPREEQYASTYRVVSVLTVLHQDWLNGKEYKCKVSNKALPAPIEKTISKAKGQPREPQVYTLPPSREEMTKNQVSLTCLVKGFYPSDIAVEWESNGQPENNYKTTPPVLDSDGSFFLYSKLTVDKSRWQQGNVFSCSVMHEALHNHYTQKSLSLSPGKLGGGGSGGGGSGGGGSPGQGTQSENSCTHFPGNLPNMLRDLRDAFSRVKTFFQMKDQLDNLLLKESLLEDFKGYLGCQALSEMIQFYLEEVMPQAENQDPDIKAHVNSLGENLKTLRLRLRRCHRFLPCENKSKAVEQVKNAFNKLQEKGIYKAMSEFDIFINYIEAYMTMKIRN
light: DIQMTQSPSSLSASVGDRVTITCRASQDVSSSVAWYQQKPGKAQKLLISWATSLYSGVPSRFSGSGSGTDFTLTISSLQPEDFATYYCQQYNNFPYTFGQGTKVEIKRTVAAPSVFIFPPSDEQLKSGTASVVCLLNNFYPREAKVQWKVDNALQSGNSQESVTEQDSKDSTYSLSSTLTLSKADYEKHKVYACEVTHQGLSSPVTKSFNRGEC
What is called EC50 is the concentration giving half of the maximal effect. A word on the IC50: it is the concentration needed to halve the response being measured. Take B1: the results for the EC50 in assay [1] and in assay [3] were 66.3 nM and 0.164 nM, respectively. The IC50 in assay [2] is 1.2 nM.

B2: PHS219 (antibody, human IgG1, kappa, N297A)
heavy: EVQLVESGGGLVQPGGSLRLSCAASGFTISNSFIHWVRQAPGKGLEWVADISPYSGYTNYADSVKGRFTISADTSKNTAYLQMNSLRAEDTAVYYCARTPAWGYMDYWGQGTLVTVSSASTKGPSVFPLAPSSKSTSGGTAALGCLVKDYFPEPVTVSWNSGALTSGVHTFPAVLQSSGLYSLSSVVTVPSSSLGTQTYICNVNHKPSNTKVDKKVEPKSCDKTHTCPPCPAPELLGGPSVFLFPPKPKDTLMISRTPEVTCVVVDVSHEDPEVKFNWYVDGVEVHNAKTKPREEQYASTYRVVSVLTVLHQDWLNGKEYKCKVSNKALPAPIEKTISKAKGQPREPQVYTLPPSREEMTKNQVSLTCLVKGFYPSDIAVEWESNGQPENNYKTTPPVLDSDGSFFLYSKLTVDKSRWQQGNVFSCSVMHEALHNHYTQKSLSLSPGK
light: B1 light
Consider B2, for which the IC50 in assay [2] came to 38900 nM. In assay [3], the concentration giving a half-maximal response (EC50) is 0.204 nM.

B3: Atezolizumab (antibody)
heavy: not shown
light: DIQMTQSPSSLSASVGDRVTITCRASQDVSTAVAWQQKPGKAPKLLIYSASFLYSGVPSRFSGSGSGTDFTLTISSLQPEDFATYYCQQYLYHPATFGQGTKVEIKRRTVAAPSVFIFPPSDEQLKSGTASVVCLLNNFYPREAKVQWKVDNALQSGNSQESVTEQDSKDSTYSLSSTLTLSKADYEKHKVYACEVTHQGLSSPVTKSFNRGEC
notes: also called YW243.55.S70; MPDL3280A
With B3, the EC50 in assay [4] is 0.14 nM. Further, the IC50 in assay [2] came out at 0.239 nM.

B4: Atezolizumab/IL10 (antibody)
heavy: not shown
light: B3 light
B4: the results for the EC50 in assay [1] and in assay [3] were 87.2 nM and 0.0865 nM, respectively. Further, the IC50 in assay [2] came out at 0.124 nM.

B5: Durvalumab/IL10 (antibody, human IgG1, kappa, N297A)
heavy: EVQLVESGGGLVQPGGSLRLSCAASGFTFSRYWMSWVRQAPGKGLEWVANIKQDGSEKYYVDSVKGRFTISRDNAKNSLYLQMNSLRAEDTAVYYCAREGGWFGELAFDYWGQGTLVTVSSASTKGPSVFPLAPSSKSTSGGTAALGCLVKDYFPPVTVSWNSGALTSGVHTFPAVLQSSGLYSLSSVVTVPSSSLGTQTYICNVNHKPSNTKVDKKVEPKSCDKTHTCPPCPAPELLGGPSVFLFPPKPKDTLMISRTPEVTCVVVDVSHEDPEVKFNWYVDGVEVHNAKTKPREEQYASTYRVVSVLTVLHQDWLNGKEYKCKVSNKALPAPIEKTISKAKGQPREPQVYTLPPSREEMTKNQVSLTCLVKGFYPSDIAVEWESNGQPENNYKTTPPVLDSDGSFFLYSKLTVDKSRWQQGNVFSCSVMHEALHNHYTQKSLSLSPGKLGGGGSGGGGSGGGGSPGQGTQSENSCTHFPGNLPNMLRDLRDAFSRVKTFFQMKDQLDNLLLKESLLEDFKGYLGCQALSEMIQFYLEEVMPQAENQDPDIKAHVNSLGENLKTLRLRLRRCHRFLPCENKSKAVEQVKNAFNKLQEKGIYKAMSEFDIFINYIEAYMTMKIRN
light: EIVLTQSPGTLSLSPGERATLSCRASQRVSSSYLAWYQQKPGQAPRLLIYDASSRATGIPDRFSGSGSGTDFTLTISRLEPEDFAWYYCQQYGSLPWTFGQGTKVEIKRTVAAPSVFIFPPSDEQLKSGTASVVCLLNNFYPREAKVQWKVDNALQSGNSQESVTEQDSKDSTYSLSSTLTLSKADYEKHKVYACEVTHQGLSSPVTKSFNRGEC
As to B5, the EC50 came to 37.5 nM in assay [1] and 0.121 nM in assay [3]. The IC50 in assay [2] came out at 0.188 nM.

B6: PHS102.HSYPP31F (antibody, human IgG1, kappa, N297A, V domains shown)
VH: EVQLVESGGGLVQPGGSLRLSCAASGFTIEDSYIHWVRQAPGKGLEWVARIDPITGLTHYADSVKGRFTISADTSKNTAYLQMNSLRAEDTAVYYCARAFSWFPDYWGQGTLVTVSS
VL: DIQMTQSPSSLSASVGDRVTITCRAGQDVYKAVAWYQQKPGKAPKLLIYWSTNLYSGVPSRFSGSGSGTDFTLTISSLQPEDFATYYCQQIMEPPVTFGQGTKVEIKR
notes: full-length human IgG1-N297A / kappa
The term Kd denotes the free concentration of one partner at which half of the binding sites on the other are occupied at equilibrium, for simple one-to-one binding. By koff is commonly meant the first-order rate constant of dissociation. Usually kon stands for a measure of how fast the partners come together. In the case of B6, in assay [5], the “IC50, blocking PD-1/PD-L1 signaling (PathHunter PD-1 Signaling Bioassay, U2OS PD-L1 cells + Jurkat PD-1 signaling cells)” value (“IC50, blocking PD-1/PD-L1 signaling” below) was 3.56 nM. Also, in assay [6], the Kd turned out to be 1.88 nM, the koff worked out at 0.000542 s⁻¹ and the on-rate (kon) stood at 288000 M⁻¹ s⁻¹.

B7: PHS102.HSYPP411C (antibody, human IgG1, kappa, N297A, V domains shown)
VH: EVQLVESGGGLVQPGGSLRLSCAASGFTIDNTYIHWVRQAPGKGLEWVARIDPANGKTTYADSVKGRFTISADTSKNTANLQMNSLRAEDTAVYYCARSFSWWADYWGQGTLVTVSS
VL: B6 VL with I91F, M92N, E93L, P94Q, V96T
notes: as for B6
With B7, in assay [5], the “IC50, blocking PD-1/PD-L1 signaling” value turned out to be 3.74 nM. Also, in assay [6], the Kd turned out to be 2.03 nM, the koff was 0.000653 s⁻¹ and the kon was determined as 321000 M⁻¹ s⁻¹.

B8: PHS102.YP11F (antibody, human IgG1, kappa, N297A, V domains shown)
VH: B7 VH with A54V, N55S, K57R, T59R, N80D, S99A, W103F, A104P
VL: B6 VL with I91F, M92G, E93A, P94T, V96I
notes: as for B6
As to B8, in assay [6], the Kd was found to be 1.84 nM, the koff came to 0.000615 s⁻¹ and the kon came out at 334000 M⁻¹ s⁻¹.

B9: PHS102.YT6D (antibody, human IgG1, kappa, N297A, V domains shown)
VH: B6 VH with E30S, S32G, I54L, L57R, H59M, F103W
VL: B6 VL with E93S, V96P
Take B9: in assay [6], the Kd came out at 2.16 nM, the koff worked out at 0.000713 s⁻¹ and the kon was 330000 M⁻¹ s⁻¹.

B10: PHS102.YT10H (antibody, human IgG1, kappa, N297A, V domains shown)
VH: B6 VH with E30S, S32A, D52E, I54L, T55S, L57R, H59D, P104M
VL: B6 VL with T74M, I91H, M92D, E93K, P94T, V96T
notes: as for B6
In the case of B10, in assay [6], the Kd was determined as 1.92 nM, the koff is 0.00067 s⁻¹ and the kon came to 350000 M⁻¹ s⁻¹.

B11: Avelumab/IL10 (antibody, human IgG1, lambda)
heavy: not shown
light: QSALTQPASVSGSPGQSITISCTGTSSDVGGYNYVSWYQQHPGKAPKLMIYDVSNRPSGVSNRFSGSKSGNTASLTISGLQAEDEADYYCSSYTSSSTRVFGTGTKVTVLGQPKANPTVTLFPPSSEELQANKATLVCLISDFYPGAVTVAWKADGSPVKAGVETTKPSKQSNNKYAASSYLSLTPEQWKSHRSYSCQVTHEGSTVEKTVAPTECS
In assay [1], B11 had an EC50 of 25.9 nM.

B12: PHS102 (antibody, human IgG1, kappa, N297A)
heavy: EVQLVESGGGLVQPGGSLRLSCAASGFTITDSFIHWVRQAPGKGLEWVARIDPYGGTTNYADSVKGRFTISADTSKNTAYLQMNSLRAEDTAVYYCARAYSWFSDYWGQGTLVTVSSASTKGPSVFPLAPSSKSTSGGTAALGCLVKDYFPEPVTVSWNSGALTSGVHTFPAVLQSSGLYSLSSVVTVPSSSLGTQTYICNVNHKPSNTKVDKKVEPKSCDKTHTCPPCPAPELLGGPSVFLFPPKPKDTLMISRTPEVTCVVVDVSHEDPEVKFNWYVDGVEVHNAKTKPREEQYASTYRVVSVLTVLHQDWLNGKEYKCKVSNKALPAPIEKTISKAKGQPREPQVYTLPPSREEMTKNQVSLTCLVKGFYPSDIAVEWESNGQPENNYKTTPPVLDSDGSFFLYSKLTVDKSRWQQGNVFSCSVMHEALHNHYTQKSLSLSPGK
light: DIQMTQSPSSLSASVGDRVTITCRAGQDVYKAVAWYQQKPGKAPKLLIYWSTNLYSGVPSRFSGSGSGTDFTLTISSLQPEDFATYYCQQGSTWPLTFGQGTKVEIKRTVAAPSVFIFPPSDEQLKSGTASVVCLLNNFYPREAKVQWKVDNALQSGNSQESVTEQDSKDSTYSLSSTLTLSKADYEKHKVYACEVTHQGLSSPVTKSFNRGEC
Consider B12, for which the EC50 in assay [4] turned out to be 0.216 nM. Further, the “IC50, blocking PD-1/PD-L1 signaling” value in assay [5] turned out to be 3.18 nM. Besides, the IC50 in assay [2] was 0.182 nM. Further, in assay [6], the Kd stood at 14.4 nM, the koff is 0.00679 s⁻¹ and the kon is 473000 M⁻¹ s⁻¹. Also, in assay [3], the EC50 is 0.0784 nM.

B13: PHS102.YT7A/IL10 (antibody, human IgG1, kappa, N297A)
heavy: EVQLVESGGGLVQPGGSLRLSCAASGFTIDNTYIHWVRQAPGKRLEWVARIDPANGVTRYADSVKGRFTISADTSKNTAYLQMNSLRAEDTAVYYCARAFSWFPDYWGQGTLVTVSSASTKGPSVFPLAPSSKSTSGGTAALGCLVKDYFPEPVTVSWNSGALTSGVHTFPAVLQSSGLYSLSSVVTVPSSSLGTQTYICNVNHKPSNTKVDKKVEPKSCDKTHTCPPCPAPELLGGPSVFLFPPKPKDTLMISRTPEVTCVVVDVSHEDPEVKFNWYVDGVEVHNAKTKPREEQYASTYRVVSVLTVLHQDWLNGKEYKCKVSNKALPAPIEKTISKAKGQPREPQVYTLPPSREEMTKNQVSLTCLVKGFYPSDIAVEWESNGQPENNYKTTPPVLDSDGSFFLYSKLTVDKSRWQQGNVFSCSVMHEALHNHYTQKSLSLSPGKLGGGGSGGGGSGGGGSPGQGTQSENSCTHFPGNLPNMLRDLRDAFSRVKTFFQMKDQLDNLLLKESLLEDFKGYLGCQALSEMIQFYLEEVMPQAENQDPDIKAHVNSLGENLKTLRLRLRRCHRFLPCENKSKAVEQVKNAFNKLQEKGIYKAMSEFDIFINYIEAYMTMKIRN
light: B12 light with G91Y, S92G, T93I, W94A, L96P
For the molecule B13, the “IC50, blocking PD-1/PD-L1 signaling” value in assay [5] was 4.87 nM.

B14: PHS102.YT7A (antibody, human IgG1, kappa, N297A)
heavy: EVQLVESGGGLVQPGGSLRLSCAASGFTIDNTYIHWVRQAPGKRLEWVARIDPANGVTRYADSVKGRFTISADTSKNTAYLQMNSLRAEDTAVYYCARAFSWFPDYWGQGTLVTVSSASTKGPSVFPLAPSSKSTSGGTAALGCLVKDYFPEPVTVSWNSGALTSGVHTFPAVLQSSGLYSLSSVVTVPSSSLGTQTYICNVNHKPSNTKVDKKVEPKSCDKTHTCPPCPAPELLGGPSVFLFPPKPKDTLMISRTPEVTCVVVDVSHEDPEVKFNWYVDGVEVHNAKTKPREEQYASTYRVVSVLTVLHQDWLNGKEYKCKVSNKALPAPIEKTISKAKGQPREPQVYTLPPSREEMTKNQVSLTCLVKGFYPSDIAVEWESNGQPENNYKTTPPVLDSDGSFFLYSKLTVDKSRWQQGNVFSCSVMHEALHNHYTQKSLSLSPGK
light: B12 light with G91Y, S92G, T93I, W94A, L96P
notes: as for B6
B14: in assay [5], the “IC50, blocking PD-1/PD-L1 signaling” value was determined as 6.07 nM. In assay [6], the equilibrium dissociation constant (Kd) came out at 1.99 nM, the koff was determined as 0.000603 s⁻¹ and the kon came out at 303000 M⁻¹ s⁻¹.

B15: PHS102/IL10 (antibody, human IgG1, kappa, N297A)
heavy: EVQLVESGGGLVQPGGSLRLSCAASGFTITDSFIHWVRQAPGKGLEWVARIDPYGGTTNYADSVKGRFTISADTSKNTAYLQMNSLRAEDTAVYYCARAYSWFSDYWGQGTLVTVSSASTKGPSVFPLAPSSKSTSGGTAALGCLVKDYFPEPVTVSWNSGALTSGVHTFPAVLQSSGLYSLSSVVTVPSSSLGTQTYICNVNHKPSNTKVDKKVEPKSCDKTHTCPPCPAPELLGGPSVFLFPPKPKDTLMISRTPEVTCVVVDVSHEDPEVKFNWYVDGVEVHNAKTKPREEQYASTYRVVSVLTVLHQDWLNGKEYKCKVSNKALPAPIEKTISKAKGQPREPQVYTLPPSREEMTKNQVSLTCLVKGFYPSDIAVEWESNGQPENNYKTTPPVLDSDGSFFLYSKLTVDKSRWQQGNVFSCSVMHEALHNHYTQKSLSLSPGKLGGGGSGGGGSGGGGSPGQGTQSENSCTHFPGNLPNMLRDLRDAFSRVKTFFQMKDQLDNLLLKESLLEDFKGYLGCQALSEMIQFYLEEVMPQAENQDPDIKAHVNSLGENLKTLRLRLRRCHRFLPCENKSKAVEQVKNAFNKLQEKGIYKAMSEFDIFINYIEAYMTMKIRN
light: B12 light
Take B15: in assay [5], the “IC50, blocking PD-1/PD-L1 signaling” value is 4.22 nM. Moreover, the values for the EC50 in assay [1] and in assay [3] were 94.3 nM and 0.0798 nM, respectively. Also, in assay [2], the IC50 is 0.061 nM.

B16: PHS102.YT7H/IL10 (antibody, human IgG1, kappa, N297A)
heavy: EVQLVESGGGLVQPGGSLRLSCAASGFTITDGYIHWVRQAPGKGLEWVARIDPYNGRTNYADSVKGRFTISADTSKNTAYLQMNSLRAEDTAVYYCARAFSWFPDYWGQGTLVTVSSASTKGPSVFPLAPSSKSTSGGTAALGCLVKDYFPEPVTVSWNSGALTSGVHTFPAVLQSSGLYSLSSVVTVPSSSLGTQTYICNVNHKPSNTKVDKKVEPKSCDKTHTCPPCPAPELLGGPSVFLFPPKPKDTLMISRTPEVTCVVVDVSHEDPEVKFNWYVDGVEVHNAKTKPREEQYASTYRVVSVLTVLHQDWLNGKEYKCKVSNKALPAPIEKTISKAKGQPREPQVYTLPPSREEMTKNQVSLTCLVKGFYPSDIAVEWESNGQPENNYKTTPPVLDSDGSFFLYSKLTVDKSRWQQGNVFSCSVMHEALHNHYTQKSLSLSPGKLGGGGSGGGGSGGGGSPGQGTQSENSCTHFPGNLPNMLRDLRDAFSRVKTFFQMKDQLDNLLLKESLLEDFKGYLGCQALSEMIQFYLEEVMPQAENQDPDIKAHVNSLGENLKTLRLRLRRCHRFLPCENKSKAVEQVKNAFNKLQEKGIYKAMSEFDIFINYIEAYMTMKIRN
light: B12 light with G91H, S92G, T93N, W94A, L96I
B16: in assay [5], the “IC50, blocking PD-1/PD-L1 signaling” value turned out to be 2.47 nM.

B17: PHS102.YT7H (antibody, human IgG1, kappa, N297A)
heavy: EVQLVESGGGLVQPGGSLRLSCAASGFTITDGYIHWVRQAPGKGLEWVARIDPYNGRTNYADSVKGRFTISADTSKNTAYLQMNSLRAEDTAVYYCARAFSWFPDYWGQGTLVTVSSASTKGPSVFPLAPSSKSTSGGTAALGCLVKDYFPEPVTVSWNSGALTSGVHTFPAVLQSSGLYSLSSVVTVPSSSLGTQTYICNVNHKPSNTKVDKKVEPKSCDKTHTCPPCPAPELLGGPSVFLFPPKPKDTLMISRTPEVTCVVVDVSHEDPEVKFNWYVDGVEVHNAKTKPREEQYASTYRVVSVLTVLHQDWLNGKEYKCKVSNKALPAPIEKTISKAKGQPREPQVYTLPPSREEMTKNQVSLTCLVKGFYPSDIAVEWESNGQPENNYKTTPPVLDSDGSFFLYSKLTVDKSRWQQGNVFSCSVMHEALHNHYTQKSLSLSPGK
light: B12 light with G91H, S92G, T93N, W94A, L96I
notes: as for B6
For the molecule B17, the “IC50, blocking PD-1/PD-L1 signaling” value in assay [5] turned out to be 3.48 nM. Further, in assay [6], the Kd was 6.16 nM, the koff worked out at 0.00125 s⁻¹ and the kon stood at 203000 M⁻¹ s⁻¹.

B18: PHS102.YP7G (antibody, human IgG1, kappa, N297A, V domains shown)
VH: B6 VH with E30D, S32T, I54A, T55N, L57M, H59R, T69M
VL: B6 VL with I91G, M92S, E93T, P94W, V96L
notes: as for B6
On to B18, for which, in assay [6], the Kd amounted to 5.51 nM, the koff is 0.00136 s⁻¹ and the kon is 247000 M⁻¹ s⁻¹.
